# Source: the DeepSol protein solubility set
# Assay: soluble on expression in E. coli; label from the status in PepcDB or PDB records
row,Sequence,soluble on expression in E. coli
1,MGFKCGIVGLPNVGKSTLFNALTKAGIEAANFPFCTIEPNTGVVPMPDPRLDQLAEIVKPQRTLPTTMEFVDIAGLVKGASKGEGLGNQFLTNIRETEAIGHVVRCFENDNIIHVSGKVNPADDIEVINTELALADLDTCERAIHRVQKKAKGGDKDAKAELAVLEKCLPQLENAGMLRALDLSAEEKAAIRYLSFLTLKPTMYIANVNEDGFENNPYLDQVREIAAKEGSVVVPVCAAVEADIAELDDEERDEFMQELGLEEPGLNRVIRAGYKLLNLQTYFTAGVKEVRAWTIPVGATAPQAAGKIHTDFEKGFIRAQTISFEDFITYKGEQGAKEAGKMRAEGKDYIVKDGDVMNFLFNV,soluble
2,MGSDKIHHHHHHMSLPGSKLEEARRLVNEKQYNEAEQVYLSLLDKDSSQSSAAAGASVDDKRRNEQETSILELGQLYVTMGAKDKLREFIPHSTEYMMQFAKSKTVKVLKTLIEKFEQVPDSLDDQIFVCEKSIEFAKREKRVFLKHSLSIKLATLHYQKKQYKDSLALINDLLREFKKLDDKPSLVDVHLLESKVYHKLRNLAKSKASLTAARTAANSIYCPTQTVAELDLMSGILHCEDKDYKTAFSYFFESFESYHNLTTHNSYEKACQVLKYMLLSKIMLNLIDDVKNILNAKYTKETYQSRGIDAMKAVAEAYNNRSLLDFNTALKQYEKELMGDELTRSHFNALYDTLLESNLCKIIEPFECVEISHISKIIGLDTQQVEGKLSQMILDKIFYGVLDQGNGWLYVYETPNQDATYDSALELVGQLNKVVDQLFEKASVLY,not soluble
3,MESSGKSSANPNLLAETLTTMQAQLQTQTEISQQVMEDNKNQSALLKQQREMSQALLEENKRLRAAQGDQPRFVAVGEKPLNSVKLMSDLLRQLPKYHFDVSEPDSFTKWWARHKLTFTEDGAELSNRERNRMLVARLEESTFQRFVDSQRDVEDIYSVPVEDTIKALSKSFGSQRSLMIRRQSCLLISRASGASMDPLEYTNLVGEAVLDAKLSNMSTDDWSIFIFLRGMDAPEDALAKRYLMQYYEQFERKDEKLKLSDVHDEWIRYIQTQQQSKVITVTPARHPKFEVNQVDADDKKKDSRKGNYRPPYCYKCKVVGHVSKDCPQSSTNSGVTNRKTEHSEVNTLEVGSGRQTSPSLRLNVEGQQIDFTFDTGSDITLISVQNWQKIGKPHLEKVHHKICCANGTEIAVKGRVLVWFKVKGVEYTEYVYVWNRNNNLLGTSWMRHSPQMRDALAVMVNHISTVDNSKQNSHSFSRIPTGYKDRAENVGRHVVASAPRSSKRQYVRFARNKAFQIGQLCLARVQGEHDFGWIYGVVQRQVNGVLYEVQLGSRIQRIHTNQLRHICGRRSRGNDYASSFIENPCKLSLLENIPRSSCRQKFVAQGVRGEGREANPVLVSDSSVFGFSAPDLSACESVGSRSAREVVSSVAGNARNASGANITTIHVTESKSSLKKSHRRRRRVAKSRQSYTAGSSPIKETHLDPLLESDVASDGERFQPGILLRHSLRQSHPRQVVRGSAPNTDHVSTRRRGRDTASGRDAPSPGIISGFLSYKRGDVVDGT,soluble
4,MGSDKIHHHHHHMSGKLTVITGPMYSGKTTELLSFVEIYKLGKKKVAVFKPKIDSRYHSTMIVSHSGNGVEAHVIERPEEMRKYIEEDTRGVFIDEVQFFNPSLFEVVKDLLDRGIDVFCAGLDLTHKQNPFETTALLLSLADTVIKKKAVCHRCGEYNATLTLKVAGGEEEIDVGGQEKYIAVCRDCYNTLKKRV,not soluble
5,MAEKPHMNLVVIGHVDHGKSTLVGHLLYRLGYIEEKKLKELEEQAKSRGKESFKFAWILDKMKEERERGITIDLTFMKFETKKYVFTIIDAPGHRDFVKNMITGASQADAAILVVSARKGEFEAGMSTEGQTREHLLLARTMGIEQIIVAVNKMDAPDVNYDQKRYEFVVSVLKKFMKGLGYQVDKIPFIPVSAWKGDNLIERSPNMPWYNGPTLVEALDQLQPPAKPVDKPLRIPVQNVYSIPGAGTVPVGRVETGVLRVGDKVVFMPPGVVGEVRSIEMHYQQLQQAEPGDNIGFAVRGVSKSDIKRGDVAGHLDKPPTVAEEFEARIFVIWHPSAITVGYTPVIHVHTASVSSRIIEIKAKLDPKTGQVVEQNPQFLKAGDAAIVRFKPVKPLVVEKFSEIPQLGRFAMRDMNRTVGIGIVTDVKPAKVDIKAK,soluble
6,DLSKNSDVAYLWCSSNKLTSLNLSGVKGLSVLVCHSNQIAGEEMTKVVNALPTLSPGAGAQSKFVVVDLKDTDEKNICTVKDVEKAKSKNWRVFDFNGDSDNMLPYEGSPTSNLAVDAPTVRIYPNPVGRYALVEIPESLLGQEAALYDMNGVKVYSFAVESLRQNIDLTHLPDGTYFFRLDNYTTKLIKQ,not soluble
7,MSLHKRMKKKLILAAAGAMAVFSLAACSSGSKDIATMKGSTITVDDFYNQIKEQSTSQQAFSQMVIYKVFEEKYGDKVTDKDIQKNFDEAKEQVEAQGGKFSDALKQAGLTEKTFKKQLKQRAAYDAGLKAHLKITDEDLKTAWASFHPEVEAQIIQVASEDDAKAVKKEITDGGDFTKIAKEKSTDTATKKDGGKIKFDSQATTVPAEVKEAAFKLKDGEVSEPIAATNMQTYQTTYYVVKMTKNKAKGNDMKPYEKEIKKIAEETKLADQTFVSKVISDELKAANVKIKDDAFKNALAGYMQTESSSASSEKKESKSSDSKTSDTKTSDSEKATDSSSKTTESSSKEGGSHHHHHH,soluble
8,MIKTAQSVGELTRAIKNELESLFPFVRVKGELSNVKQHSSGHVYLTLKDSEAQIPAVIWKSVRARSPLELRDGLEVIAEGRLEVWPPAGRYQLICTALFETGEGEQRLALERLIAKLAKAGWFDAERKKPIPRIPRRIGMITSPTGAVIRDMSDVFARRFPAAELLLYPVQVQGERAVESIVRALRYFNDPPKPEHKPDVLIVARGGGSSEDLQAFNDEAVAEAIYRSAIPVISAVGHETDLSVADMVADLRAGTPSIAAERAVPDREELLRLIDNLVNRQSILMEGLISGAQLQVDSITSSYAFNRPVQMLGQFEERLALMEKEMKRAIAEKVRDREQQLTAAADRLAMLDINRTLKRGFALVTQDDRYVTSAKSLEADAKIGLTFHDGQREARVTE,not soluble
9,MGSDKIHHHHHHMLRFVMNDDQQSCLVSRLSRFVALTEAECAFIAEMEKDEHERRKGRPVVQVGDPTEGIMVLKSGWAVVKADSSDGRSQILRVYLPGEVMGLAEIGSSHANHRIIMQTDGKICPFPRAGLAPLYSDYPRLGALLTAVGSLDQIALRHHASSLGAMDATGRLKFWLLQLRSRLEVANVGLGNRFRVPFSQVEIGQAVGLTSIYVNKLLRRFMDDGDLEIERPYFRLLNREQWERDCEYVNPFVDMDTSWFPPAYPEIHDSAP,not soluble
10,MILTTSRKPSQRTRSFARDLERTLNIPYVQRGKLSLKEIFEIDKHVLLIGEFKANPGTLVVYDVENEKRLSSFISVKLQREICGEKIYNDDGIRIKISRELKDNEEFQKYYEIYDEFLFQHLNINEDSDITLRLEKDPKYLFAIQFYKGRVKIGPLIRIKSIKLFDSLLLEHHHHHH,soluble
11,MLGTIKPNYWIRKLSTKTSYGYRIDARAYVKVVRKTYHFLWKDSEEIVIFNPNADVGGLLYIGGLEHHHHHH,not soluble
12,KMKNWIKTVCFLLWTCVMCTACIDDDVEEGTVDLQTGESIPVFSVVMDDGQIITSETLKGEVSLIVFFHTGCPDCRKELPVLQKIYTDYGRRIRMVCISREESSAEIVRYWDENHLTLPYSAQENRTVYYQFAKSGIPRVYVIDKELVIRSVFTDNPLASYEDLAEAITASL,not soluble
13,LALIAGTGALPEELVARLSEPPLVCAMEGFAPERLAVDIPFPIEHLGSLVADLKARGVSEICLAGAVGRPAVDPARIDAATLPLVPVIQQALTSGDDGALRAVMGIFENAGLTVRAAHEIAPDLLMPAGCPTKAQPEPAELADARRGAEIVAAMSAADIGQACVVHRGQALAVESVFGTNWMLGSLGQRPDAGGGVLFKAPKPDQDRRADLPTIGPDT,not soluble
14,MEPSGGEQEPGAVRFLDLPWEDVLLPHVLNRVPLRQLLRLQRVSRAFRSLVQLHLAGLRRFDAAQVGPQIPRAALARLLRDAEGLQELALAPCHEWLSDEDLVPVLARNPQLRSVALGGCGQLSRRALGALAEGCPRLQRLSLAHCDWVDGLALRGLADRCPALEELDLTACRQLKDEAIVYLAQRRGAGLRSLSLAVNANVGDAAVQELARNCPELHHLDLTGCLRVGSDGVRTLAEYCPVLRSLRVRHCHHVAESSLSRLRKRGVDIDVEPPLHQALVLLQDMAGFAPFVNLQV,soluble
